Literature values in article PMC5735807.
pKd: −log10 of the molar value.

Key:
[1] = biological target: Fas (Homo sapiens) (UniProt P25445)
[2] = biological target: CD36 (Homo sapiens) (UniProt P16671)
CD36 (Homo sapiens), sequence (P16671 2-472): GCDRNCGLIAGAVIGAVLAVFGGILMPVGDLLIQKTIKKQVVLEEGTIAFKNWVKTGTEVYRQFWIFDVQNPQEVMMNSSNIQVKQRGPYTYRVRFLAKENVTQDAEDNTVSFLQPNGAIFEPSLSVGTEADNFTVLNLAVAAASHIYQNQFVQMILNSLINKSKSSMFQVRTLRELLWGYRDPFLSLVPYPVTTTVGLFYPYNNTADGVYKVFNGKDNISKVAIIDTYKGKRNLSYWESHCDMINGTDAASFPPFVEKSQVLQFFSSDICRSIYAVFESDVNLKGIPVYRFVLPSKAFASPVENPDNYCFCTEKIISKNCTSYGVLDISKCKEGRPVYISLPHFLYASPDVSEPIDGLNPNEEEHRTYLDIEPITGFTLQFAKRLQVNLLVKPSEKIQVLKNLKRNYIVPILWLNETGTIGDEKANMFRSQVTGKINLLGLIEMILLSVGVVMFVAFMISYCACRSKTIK

TSP1, sequence (P07996 19-1170): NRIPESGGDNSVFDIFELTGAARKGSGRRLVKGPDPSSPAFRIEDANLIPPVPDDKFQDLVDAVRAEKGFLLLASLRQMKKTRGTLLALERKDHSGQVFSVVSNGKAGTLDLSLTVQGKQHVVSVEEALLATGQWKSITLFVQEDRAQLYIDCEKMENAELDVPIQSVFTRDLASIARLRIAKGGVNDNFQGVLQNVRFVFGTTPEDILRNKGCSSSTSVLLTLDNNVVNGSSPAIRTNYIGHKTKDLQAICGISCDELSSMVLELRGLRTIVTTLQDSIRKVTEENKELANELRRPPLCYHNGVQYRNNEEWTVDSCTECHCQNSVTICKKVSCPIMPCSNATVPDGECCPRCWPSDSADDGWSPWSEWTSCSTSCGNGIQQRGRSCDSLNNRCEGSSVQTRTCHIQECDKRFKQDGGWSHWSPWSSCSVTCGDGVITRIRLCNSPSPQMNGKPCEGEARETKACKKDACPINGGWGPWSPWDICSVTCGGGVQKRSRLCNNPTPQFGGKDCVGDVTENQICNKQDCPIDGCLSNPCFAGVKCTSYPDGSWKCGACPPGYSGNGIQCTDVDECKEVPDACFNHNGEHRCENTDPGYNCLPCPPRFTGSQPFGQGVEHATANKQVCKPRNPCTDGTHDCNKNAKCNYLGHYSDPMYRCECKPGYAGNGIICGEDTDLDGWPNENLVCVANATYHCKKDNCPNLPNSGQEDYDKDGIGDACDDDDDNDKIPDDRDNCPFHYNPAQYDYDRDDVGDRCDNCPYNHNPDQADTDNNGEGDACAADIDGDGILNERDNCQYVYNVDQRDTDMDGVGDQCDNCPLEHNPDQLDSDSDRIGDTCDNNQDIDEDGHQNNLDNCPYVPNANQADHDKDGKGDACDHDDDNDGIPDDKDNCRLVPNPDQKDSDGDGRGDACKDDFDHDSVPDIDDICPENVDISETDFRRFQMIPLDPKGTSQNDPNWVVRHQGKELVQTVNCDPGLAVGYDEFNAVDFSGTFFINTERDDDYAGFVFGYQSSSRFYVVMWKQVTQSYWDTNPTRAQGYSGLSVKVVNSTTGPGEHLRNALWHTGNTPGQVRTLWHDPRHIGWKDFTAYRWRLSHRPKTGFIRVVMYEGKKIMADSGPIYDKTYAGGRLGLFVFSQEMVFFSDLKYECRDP
FasL, sequence (P48023 1-81): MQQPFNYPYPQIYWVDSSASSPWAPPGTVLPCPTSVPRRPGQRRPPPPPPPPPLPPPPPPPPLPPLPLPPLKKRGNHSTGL
Fas (Homo sapiens), sequence (P25445 26-335): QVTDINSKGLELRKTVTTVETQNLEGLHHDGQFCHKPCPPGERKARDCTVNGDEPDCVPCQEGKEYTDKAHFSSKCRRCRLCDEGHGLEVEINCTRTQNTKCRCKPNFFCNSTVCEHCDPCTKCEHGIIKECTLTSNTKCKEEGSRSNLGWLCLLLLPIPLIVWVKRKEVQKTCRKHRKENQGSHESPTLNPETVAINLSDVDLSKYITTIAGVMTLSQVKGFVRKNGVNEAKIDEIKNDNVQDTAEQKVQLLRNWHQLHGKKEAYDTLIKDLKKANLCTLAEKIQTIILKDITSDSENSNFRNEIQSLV

Row | pKd [1] | pKd [2] | Substance
1 | 9.40 | – | FasL (from UniProt P48023)
2 | – | 6.64 | TSP1 (from UniProt P07996)
